Laboratory results taken from patent publication US20190177391A1, “ANGIOPOIETIN-LIKE PROTEIN 8 (ANGPTL8)” (BAYLOR RESEARCH INSTITUTE, priority 2016, published 2019).

What was measured:
Notch1 = Notch1 expression in HL-1 atria muscle cells treated with ADM; type: cell-based, mouse; details: HL-1 cells; ADM 0.25, 0.5, 1.0 μM, 48 hrs
ISL-1 = ISL-1 positive cardiac progenitor cells in epicardium and sub-epicardium (staining, qRT-PCR); type: in vivo, rat; details: protein injection, dose dependent manner, after 14 days treatment
Protocol: (§1) There were 120 rats divided into three control groups of 30 rats each and a treatment group of 30 rats: (1) normal control rats; (2) ADM injection only; (3) ADM plus UTMD with a DsRed reporter gene (pXL-BASII-CI-DsRed/pCI-hyPB); (4) ADM plus UTMD with ANGPTL8 (pXL-BASII-CI-ANGPTL8/pCI-hyPB). All rats were euthanized at 3 days, 7 days, 14 days, 21 days and 28 days after UTMD. The thymidine analog, 5-bromo-2-deoxyuridine (BrdU) (100 mg/kg) was injected intraperitoneally 6 hours prior to euthanizing.
(§2) 15 rats divided into (1) normal control rats; (2) ADM plus Saline inject rats; (3) ADM plus ANGPTL8 protein at dose of 5 μg/kg/day intramuscular inject for 14 days; (4) ADM plus ANGPTL8 protein at dose of 20 μg/kg/day intramuscular inject for 14 days; (5) ADM plus ANGPTL8 protein at dose of 40 μg/kg/day intramuscular inject for 14 days; All rats were euthanized at 14 days after starting ANGTPL8 protein inject. The thymidine analog, 5-bromo-2-deoxyuridine (BrdU) (100 mg/kg) was injected intraperitoneally 6 hours prior to euthanasia. […]
Total RNA was isolated from 100 mg of pancreas, liver and left quadratic skeletal muscle using the RNeasy mini kit (Qiagen). Real-time quantitative RT-PCR (qRT-PCR) analysis was performed on an ABI 7700 Sequence Detector (Applied Biosystems, Grand Island, N.Y., USA) using SYBR Green (RT2 SYBR Green qPCR Kit; Qiagen, Boston, Mass., USA). […]

[1] = test system: rat hearts with established adriamycin cardiomyopathy; experiment: Echocardiography of heart structure and function in established adriamycin cardiomyopathy; type: in vivo; details: protein therapy; 5, 20, 40 μg/kg/day intramuscular for 14 days; ADM cardiomyopathy rats
Protocol: The protocol was planned to test the hypothesis that delivery of ANGPTL8 by UTMD could reverse established adriamycin (ADM) cardiomyopathy defined as a fractional shortening <30% by echocardiography after injection of ADM (Iliskovic, et al., 1997) at total dose of 15 mg/kg/ip, 2.5 mg/kg/ip 6 times over 2 weeks.
as §1, §2

[2] = ELISA for fasting plasma human ANGPTL8; type: in vivo, rat; details: protein therapy; intramuscular daily for 14 days, 5, 20, 40 μg/kg/day; day 3, 7, 10 and 14
Protocol: as §1
15 rats divided into (1) normal control rats; (2) ADM plus Saline inject rats; (3) ADM plus ANGPTL8 protein at dose of 5 μg/kg/day intramuscular inject for 14 days; (4) ADM plus ANGPTL8 protein at dose of 20 μg/kg/day intramuscular inject for 14 days; (5) ADM plus ANGPTL8 protein at dose of 40 μg/kg/day intramuscular inject for 14 days; All rats were euthanized at 14 days after starting ANGTPL8 protein inject. The thymidine analog, 5-bromo-2-deoxyuridine (BrdU) (100 mg/kg) was injected intraperitoneally 6 hours prior to euthanasia. Human recombinant protein ANGTPL8 protein was purchased from Phoenix Pharmaceuticals (Cat #056-61, Burlingame, Calif., USA).
Fasting venous blood was collected in EDTA tubes from the tail vein, and plasma lipids were measured using standard enzymatic assays. Human ANGTPL8 was measured using ELISA (Phoenix Pharmaceuticals).

Notch1 expression (Notch1) | Molecule | ISL-1 positive cells in epicardial layer (ISL-1) | LV fractional shortening [1] | LV mass [1] | human ANGPTL8 in fasting plasma [2]
significantly inhibited | COc1cccc2c1C(=O)c1c(O)c3c(c(O)c1C2=O)C[C@@](O)(C(=O)CO)C[C@@H]3O[C@H]1C[C@H](N)[C@H](O)[C@H](C)O1 [ADM, adriamycin] |  |  |  | 
 | ANGPTL8 protein: Human recombinant ANGPTL8 protein purchased from Phoenix Pharmaceuticals (Cat #056-61), injected intramuscularly (protein, UniProt Q6UXH0 22-198, looked up) Angiopoietin-like protein 8: APMGGPELAQHEELTLLFHGTLQLGQALNGVYRTTEGRLTKARNSLGLYGRTIELLGQEVSRGRDAAQELRASLLETQMEEDILQLQAEATAEVLGEVAQAQKVLRDSVQRLEVQLRSAWLGPAYREFEVLKAHADKQSHILWALTGHVQRQRREMVAQQHRLRQIQERLHTAALPA | activated | some degree of restoration | some degree of restoration | detected
